{"source": "the DeepSol protein solubility set", "experiment": "soluble on expression in E. coli; label from the status in PepcDB or PDB records", "data": [{"sequence": "MVHHKLKNDPSGHDWFHIVRVRNLAVELAHKEGANTFICQMAALLHDIIDDKICQDSKQASYELTQWLYSQDLAIAEVEHILDILENISFKAGTGLTMKTLEGQIVQDADRLDAMGAIGIARTMAYSGSKGRLIHDPNLKPRENLTLEEYRNGQDTAIIHFYEKLLKLKDLMNTKQGKMLAQKRHDFLELYLAEFYAEWNGKRLEHHHHHH", "values": [{"measurement": "soluble on expression in E. coli", "result": "not soluble"}]}, {"sequence": "MIQAVLFDLDGTLADTALDLGGALNTLLARHGLPAKSMDEIRTQASHGAAGLIKLGAGITPDHPDYARWRTEYLDEYDSRYAQDTTLF", "values": [{"measurement": "soluble on expression in E. coli", "result": "not soluble"}]}, {"sequence": "MAGDPMKIYFEAYGCTLNQGETALYVNKLLNEGNTLVSNPKEADLSIIGTCAVIKKTEDHMMARIQNLSRFGKVEVIGCLAPVKGKTMVEDNVSVIEKDRFRSFQEVIDEVSPVNAEIVSGIPINQGCTGKCNFCVSHIARGKLVSRKPEKIAGQIKILLQRGIKEIKITSLDTAAYGKDIGLRLPHLIRTITEIGDDFRLRVGMMEPKNTLEIVDDLISAYRSEKVFKFLHLPVQSGDDYVLEVMNREYTVSDFIRITGKFREAFPDSTLSTDLIIGYYAENDDSFEKTVQLIEKIRPEIINVTKFSPRELTADFEKRPKPTNILKEQDRMIADMHKEILQEKFSNLIGKTEFVLITENGKGRSMIGRDHAYRPIVIMDKTRKFEFHQVEITGFENTSLIGRIIDLEHHHHHH", "values": [{"measurement": "soluble on expression in E. coli", "result": "not soluble"}]}, {"sequence": "ANCSIMIDEIIHHLKRPPNPLLDPNNLNSEDMDILMERNLRTPNLLAFVRAVKHLENASAIESILKNLLPCLPLATAAPTRHPIHIKDGDWNEFRRKLTFYLKTLENAQAQQ", "values": [{"measurement": "soluble on expression in E. coli", "result": "soluble"}]}, {"sequence": "AGENLYFQSLMNNFGNEEFDCHFLDEGFTAKDILDQKINEVSSSDDKDAFYVADLGDILKKHLRWLKALPRVTPFYAVKCNDSKAIVKTLAATGTGFDCASKTEIQLVQSLGVPPERIIYANPCKQVSQIKYAANNGVQMMTFDSEVELMKVARAHPKAKLVLRIATDDSKAVCRLSVKFGATLRTSRLLLERAKELNIDVVGVSFHVGSGCTDPETFVQAISDARCVFDMGAEVGFSMYLLDIGGGFPGSEDVKLKFEEITGVINPALDKYFPSDSGVRIIAEPGRYYVASAFTLAVNIIAKKIVLKEQTGSDDEDESSEQTFMYYVNDGVYGSFNCILYDHAHVKPLLQKRPKPDEKYYSSSIWGPTCDGLDRIVERCDLPEMHVGDWMLFENMGAYTVAAASTFNGFQRPTIYYVMSGPAWQLMQQFQNPDFPPEVEEQDASTLPVSCAWESGMKRHRAACASASINV", "values": [{"measurement": "soluble on expression in E. coli", "result": "soluble"}]}, {"sequence": "MGSDKIHHHHHHMRKVVEVSGVRKSFGELRVLDKVDFYAEEGDFKVIVGENGSGKSTLLKIMIGLLLPDDGEVKVLGVDVKKHWKKLSARIGVVLANERSLYWKLTAWENLDIFGGVYGVPKKVRRERMEELLKRFGLFEYKDKPVEEFSTGMRKKLMICKALIHDPEVLFIDEILNGLDPPSVREMVGFLDERNRRGLTIVMISHVLHVLPENACVVLLRNGRVQMEVRYKDIRSERSEVYEVFENLIRGRNMDEEDTPSGSEGDEDKA", "values": [{"measurement": "soluble on expression in E. coli", "result": "not soluble"}]}, {"sequence": "MGSDKIHHHHHHMKSVGQALENQGRVPRNTNDELIQMILADAQVAEFIKTHQLSQREINISMSKFNQFLIERQKFKNKDSQYIAKGYEPILVMNEGYADVSYLETRELIEAQKKQAISDRINLVNLPKSYRNIRMTDFDINNESRMKAMSQLLDFVETYPSYNHKGLYLYGDMGVGKSYLMAAMARELSERKGVSTTLLHFPSFAIDVKNAISSGTVKDEIDAVKSVPILILDDIGAEQATSWVRDEILQVILQHRMLEELPTFFTSNYSFNDLERKWANIKGSDETWQAKRVMERVRYLAIEFHLEGPNRR", "values": [{"measurement": "soluble on expression in E. coli", "result": "not soluble"}]}, {"sequence": "MHENQQPQTEAFELSAAEREAIEHEMHHYEDPRAASIEALKIVQKQRGWVPDGAIHAIADVLGIPASDVEGVATFYSQIFRQPVGRHVIRYCDSVVCHINGYQGIQAALEKKLNIKPGQTTFDGRFTLLPTCCLGNCDKGPNMMIDEDTHAHLTPEAIPELLERYK", "values": [{"measurement": "soluble on expression in E. coli", "result": "not soluble"}]}, {"sequence": "LWLASDLHLGPATPATAEAFLGLLQAAADEASALLLPGDIFDAWIGDDVIRAAPPWLAAVLQGIRAAAGRIPVYLGRGNRDFLIGQELADALGAHLLPEPVLLETDYGRILLTHGDEYCTDDSAYQQFRAMVRNPQWQAQFLAMSIPERLAMAEQARGESQAANQAKSMEIMDVNPASVEAALREADVDVLVHGHTHRPARHVL", "values": [{"measurement": "soluble on expression in E. coli", "result": "not soluble"}]}, {"sequence": "MLSLAFGVNDIYEYEGKEYKLDLAFDNVLRVIDLTEDNSLSDVFRANLAIDVLFADDMPWPRSNEEDEYANIEEKSLVLIDIFTNYIVKENDDGLLYDIDGNKMPSATNNEDAEEIASYSLTQDADYIYASFLQDYNIDLLDSRGKMHWYKFRALLESLRDDTTIKTIIGIRQAELPSGKGTEKERNELIKLKNRYKLKD", "values": [{"measurement": "soluble on expression in E. coli", "result": "not soluble"}]}, {"sequence": "MKFLFYLSADNLEIARKEVLVLAERYGWVEDYQFEERLLLLDYAGEKFFERLAYTNEVTKIYDICSVSELEQVFSEIPVYDRLCCVRVKGGKGKTALERKLGALLWKRGAKVSVSNPEIVYKVYIQDDKCYVGLLEFERDTRQFFLRRPDRRPFLMPSAIKPKLARALVNLTGVLEGETLLDPMCGTGSFLIEAGLMGINPIGIDFIEKIVRGCRVNLEYYGIEGSVLLGDAKNLPLRDESVRGIATDYPYLRSTKAAGTLDELYSKTSEEFERVLKKGGRAAIVTNIDVESFFSNFEIEMKTEERVHGSLTRRIYLLRR", "values": [{"measurement": "soluble on expression in E. coli", "result": "not soluble"}]}, {"sequence": "HHHHHGSIMKVLRKGDRGDEVCQLQTLLNLCGYDVGKPDGIFGNNTFNQVVKFQKDNCLDSDGIVGKNTWAELFSKYSPPIPYKTIPMPTANKSRAAATPVMNAVENATGVRSQLLLTFASIESAFDYEIKAKTSSATGWFQFLTGTWKTMIENYGMKYGVLTDPTGALRKDPRISALMGAELIKENMNILRPVLKREPTDTDLYLAHFFGPGAARRFLTTGQNELAATHFPKEAQANPSIFYNKDGSPKTIQEVYNLMDGKVAAHRK", "values": [{"measurement": "soluble on expression in E. coli", "result": "soluble"}]}, {"sequence": "MGSQAIEAHREGAEVYHGAALCAEKAVELLAEIHMPLGLLPLAEMEEVGYNRATGFVWLRQKKAITHTFKQISRQVSFAAEVTAFVEDRRMKRVTGAKTKELLIWVSLSDMFIDKDDASKITFKTPTGLGRTYPVDAFAKEDDGKGKVPAAAAAANGKETAVNGKAK", "values": [{"measurement": "soluble on expression in E. coli", "result": "soluble"}]}, {"sequence": "MKPVKSGLDSISKYLRTKKEVGRRKIGLLVDGPNILRKEFDVNLEEIRDVLKDYGNIKIGRVFLNQYASDKLVEAIENHGLEPIICSSDVDVRLAVEGMELVYNPNIDTLAIVTRDADFKPLLNKANEHGKETIIFGVEPGFSTALKNSADYVILMGKNHMSGYDDEDEEGKPDASERGEYHEEYPEDEYGESMEKT", "values": [{"measurement": "soluble on expression in E. coli", "result": "not soluble"}]}, {"sequence": "MSLDPSKVTSMSAVEFTPLPTCLQHRSCDACMSSDLTFNCSWCHVLQRCSSGFDRYRQEWMDYGCAQEAEGRMCEDFQDEGHHHHHH", "values": [{"measurement": "soluble on expression in E. coli", "result": "not soluble"}]}, {"sequence": "MSLYDPAEKYFNCTDIQRAFFEAGIKLGAIFHQYTGIPVNSENASMAEEFIERSTMIQPFVENVRISINNVKRSSGTYSYSSLNEKMLHAEVLINYNGKKVLGVLNYDEGLDYPVMYAKEVLEGHHHHHH", "values": [{"measurement": "soluble on expression in E. coli", "result": "soluble"}]}, {"sequence": "MSTAEFAQLLENSILSPDQNIRLTSETQLKKLSNDNFLQFAGLSSQVLIDENTKLEGRILAALTLKNELVSKDSVKTQQFAQRWITQVSPEAKNQIKTNALTALVSIEPRIANAAAQLIAAIADIELPHGAWPELMKIMVDNTGAEQPENVKRASLLALGYMCESADPQSQALVSSSNNILIAIVQGAQSTETSKAVRLAALNALADSLIFIKNNMEREGERNYLMQVVCEATQAEDIEVQAAAFGCLCKIMSKYYTFMKPYMEQALYALTIATMKSPNDKVASMTVEFWSTICEEEIDIAYELAQFPQSPLQSYNFALSSIKDVVPNLLNLLTRQNEDPEDDDWNVSMSAGACLQLFAQNCGNHILEPVLEFVEQNITADNWRNREAAVMAFGSIMDGPDKVQRTYYVHQALPSILNLMNDQSLQVKETTAWCIGRIADSVAESIDPQQHLPGVVQACLIGLQDHPKVATNCSWTIINLVEQLAEATPSPIYNFYPALVDGLIGAANRIDNEFNARASAFSALTTMVEYATDTVAETSASISTFVMDKLGQTMSVDENQLTLEDAQSLQELQSNILTVLAAVIRKSPSSVEPVADMLMGLFFRLLEKKDSAFIEDDVFYAISALAASLGKGFEKYLETFSPYLLKALNQVDSPVSITAVGFIADISNSLEEDFRRYSDAMMNVLAQMISNPNARRELKPAVLSVFGDIASNIGADFIPYLNDIMALCVAAQNTKPENGTLEALDYQIKVLEAVLDAYVGIVAGLHDKPEALFPYVGTIFQFIAQVAEDPQLYSEDATSRAAVGLIGDIAAMFPDGSIKQFYGQDWVIDYIKRTRSGQLFSQATKDTARWAREQQKRQLSL", "values": [{"measurement": "soluble on expression in E. coli", "result": "soluble"}]}, {"sequence": "MTVTNMTEWFAKGVEALHHDHVYLARACFEQAVTEQRSPLSSSYLALCQAKTRGTFSDAIASAREAVAADPANPALYHNLGCIYLLAGKRTEAIETFRQGLEHHHHHH", "values": [{"measurement": "soluble on expression in E. coli", "result": "not soluble"}]}, {"sequence": "GSSWSAINPEYAARMRIQNRFKTGLDIAKYTAAIMRKDMAEYDADSSVYTQSLGCWHGFIGQQKLISIKKHLKTTNKRYLYLSGWMVAALRSDFGPLPDQSMHEKTAVSGLIEELYTFLRQADARELDLLFTGLDAARAAGDKAKEAELLAQIDNFETHVVPIIADIDAGFGNAEATYLLAKKMIEAGACCIQIENQVSDEKQCGHQDGKVTVPHIDFLAKINAVRYAFLELGVDDGVIVARTDSLGAGLTKQIAVTNEPGDLGDLYNSFLDCEEISESELGNGDVVIKREGKLLRPKRLASNLFQFRKGTGEDRCVLDCITSLQNGADLLWIETEKPHVGQIKAMVDRIREVIPNAKLVYNNSPSFNWTLNFRQQVFDAFVAEGKDVSAYDRNKLMSVEYDDTELAKVADEKIRTFQRDGSAHAGIFHHLITLPTYHTAALSTDNLAKGYFADEGMLAYVKGVQRQELRQGIACVKHQNMAGSDIGDNHKEYFAGEAALK", "values": [{"measurement": "soluble on expression in E. coli", "result": "not soluble"}]}, {"sequence": "MGSDKIHHHHHHMNANQFLKAVSQLQGWRECAFLLALAERSFPNYALFADAVGLKTGGKMRQLLDLAWDMLQKDVADAAIPQLLSKLETLCPNVDEYDAYGVYPAFDFCQLLEQALLNRLNPNKHRATEASQLATRTVMDFVEMSEGEGMDENELVRVFEHHPLLKDDKLFQRDTVMALKKQRTPKEAFLAELRAGAANDGVSNLGISLEG", "values": [{"measurement": "soluble on expression in E. coli", "result": "not soluble"}]}, {"sequence": "MTTEAPVRVEDKLYQNRYLVDVGNAHIKVKPHTKPSPQLLALLKVCPAHCYELNSNGQVEVTPDGCVECGTCRVLAEGGGDIEWSYPRGGYGVLFKFG", "values": [{"measurement": "soluble on expression in E. coli", "result": "not soluble"}]}, {"sequence": "GMELPVVVQQALGDNAPGVSFRSVSQIDTGHLLRMVLLSDDQGNLQAICRRNDMLDLEALNKRLGRDLRMMQRREQVRVRQKAGLQELPALPSLTGWPTVVDRRVDELEAVALELGEQDLGLMMPAEDFRQLTAKAARHDFAVDTANISVNLDNHAADRDQLHSAIKRFTGLRIQQRLEDTLELPPLPETAQRIIHLRVNPNAVMGDLVDVVESDPSLAAQVVSWASSSFYAAAGRVHSVHDAVSRVLGFDLVMNLAMGLALGRALKHPQDHPDGYVDYWQQAIWQAQSAGILASMMPRGQRPLFGLAYLAGLLHNFGHLVLAQVFPPHFKLVCRSLEVSPHIDSSVIEHYLLGITREQIAAQLMENWGMPDEVTLAIRYQKNPAYDGPHNVYARLLWLGRQLLTERGVALGAGESATQAVYDELGLDRELVQEQFDELVRRKDSIMAMAGMMSQGG", "values": [{"measurement": "soluble on expression in E. coli", "result": "soluble"}]}, {"sequence": "MALANFDGPFDLLLQLIHSHKLDITEVALAQVTDEFIAYTKTLSSSAEDLDEVTEFLVVASTLLDLKAARLVPRGEVDSEEDLALLETRDLLFARLLQYRAYKQVADLFADWQRDAARAYPATLSLEEHHANLLPEVKIGKNADEFAELAAAVFRPKPDHVDTGHIHQVAVSVPEQAGRILNTLKVAGENTWVTFGALIADAELNMIVVGRFLALLELYKARAIGIEQPEPLQDMSVAWTGLDVDPAVVAASNWE", "values": [{"measurement": "soluble on expression in E. coli", "result": "soluble"}]}]}
